The source of these data is patent US20200347139A1 (INHIBRX BIOSCIENCES, published 2020).

Experiment [1] has as its target T1, human CLEC12a expressed on transiently transfected HEK 293 cells (human, UniProt Q5QGZ9 1-265).
T1 construct: also called CLL-1; CLL1
T1 sequence: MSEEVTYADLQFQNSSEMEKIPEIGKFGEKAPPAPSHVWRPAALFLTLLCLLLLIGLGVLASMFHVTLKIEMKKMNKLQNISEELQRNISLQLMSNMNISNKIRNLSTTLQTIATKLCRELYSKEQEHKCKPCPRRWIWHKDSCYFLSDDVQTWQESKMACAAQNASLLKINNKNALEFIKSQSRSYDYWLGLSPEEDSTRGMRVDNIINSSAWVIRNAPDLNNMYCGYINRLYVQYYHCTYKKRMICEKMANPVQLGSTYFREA
Briefly: flow cytometry on HEK 293 cells transfected with human CLEC12a; apparent Kd, one-site fit. The protocol:
(§1) Binding of sdAbs to human CLEC12a was assessed by flow cytometry. […] HEK 293 cells were transiently transfected with a plasmid encoding CLEC12a (UniProt Accession No. Q5QGZ9.3; SEQ ID NO: 1) and used as the positive cell line, and untransfected HEK 293 cells were used as CLEC12a-negative cells. Each cell type was plated at 30,000 cells/well in FACS buffer (PBS 1% BSA, 0.1% NaN₃ pH 7.4) on a 96-well round-bottom plate. The sdAbs were diluted in FACS buffer in a 3-fold, 11 point serial dilution. The sdAb dilutions were added to the plated cells, and assay plates were incubated for 30 minutes at 4° C. After washing twice in 150 μL of FACS buffer, cells in each well were resuspended in 100 μL of 1:2000 Alexa Fluor 647-conjugated Anti-Human IgG secondary diluted in FACS buffer and incubated at 4° C. for 30 minutes. The cells were washed twice more, then bound antibody was detected by flow cytometry.
(§2) Flow cytometric analysis was performed on an Intellicyte iQue Plus and fluorescence was plotted as median fluorescence intensity. The apparent affinity (Kd, nM) was determined using one site binding non-linear regression in PRISM graph software.
On the technique in general: A flow cytometer gives signals particle by particle.

Experiment [2] has as its target T1, human CLEC12a expressed on transiently …. As to the kind of experiment: flow cytometry on HEK 293 cells transiently transfected with human CLEC12a, Alexa Fluor 647 anti-human IgG secondary, median fluorescence. The protocol: as §1, §2
For experiment [3], the target named is T2, mFc-CLEC12a-ECD (human).
T2 construct: It was immobilized on anti-mFc capture sensors for BLI; also called CLEC12a antigen
T2 chain: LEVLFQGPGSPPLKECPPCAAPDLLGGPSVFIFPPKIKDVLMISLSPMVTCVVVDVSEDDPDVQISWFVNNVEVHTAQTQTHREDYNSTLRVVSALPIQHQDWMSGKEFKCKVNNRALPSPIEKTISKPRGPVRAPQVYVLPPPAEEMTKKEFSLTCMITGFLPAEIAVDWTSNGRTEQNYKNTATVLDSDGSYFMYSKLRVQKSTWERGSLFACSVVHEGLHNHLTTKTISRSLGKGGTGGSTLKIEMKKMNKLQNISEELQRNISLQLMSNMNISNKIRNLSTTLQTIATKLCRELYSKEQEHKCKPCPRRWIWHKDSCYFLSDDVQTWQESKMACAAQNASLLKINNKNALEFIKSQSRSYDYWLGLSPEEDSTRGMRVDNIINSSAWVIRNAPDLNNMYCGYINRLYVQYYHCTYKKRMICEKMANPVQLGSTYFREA
As to the kind of experiment: BLI, mFc-CLEC12a-ECD on anti-mFc sensors first loaded with 100 nM hzMB11v13, then 100 nM second sdAb. How it is done: (§3) The epitopes of single domain antibodies (sdAbs) that comprise VHH domains that bind CLEC12a were compared using Bio-Layer Interferometry. 7 μg/mL of mFc-CLEC12a-ECD (SEQ ID NO: 87) was immobilized on anti-mFc coated capture sensors. 100 nM of one sdAb was then loaded onto the CLEC12a antigen and allowed to come to equilibrium. The sensors were then transferred into 100 nM of a second sdAb.
(In general: In BLI a coated tip is dipped into the sample, and binding shifts an interference pattern.)

Experiment [4] addresses T2, mFc-CLEC12a-ECD. As to the kind of experiment: BLI, mFc-CLEC12a-ECD captured on anti-mFc sensors, 100 nM sdAb as first sdAb. The protocol:
as §3

B1: hzME02v4 sdAb (VHH hzME02v4 fused to human IgG1 xELL Fc) (Fc fusion)
chain: EVQLVESGGGEVQPGGSLRLSCAASGRTFEYDDMVWFRQAPGKEREEVAGISWSGGSIYYAESVKGRFSISRDNAKNTVYLEMNRLKPEDTAVYYCNVGSYWGQGTLVTVDKTHTCPPCPAPGGPSVFLFPPKPKDTLMISRTPEVTCVVVDVSHEDPEVKFNWYVDGVEVHNAKTKPREEQYNSTYRVVSVLTVLHQDWLNGKEYKCKVSNKALPAPIEKTISKAKGQPREPQVYTLPPSRDELTKNQVSLTCLVKGFYPSDIAVEWESNGQPENNYKTTPPVLDSDGSFFLYSKLTVDKSRWQQGNVFSCSVMHEALHNHYTQKSLSLSPGK
notes: Humanized version of ME02; No linker is stated; also called hzME02v4-IgG1
Turning to B1, the Kd in experiment [1] came to 0.87 nM. For the same molecule, in experiment [2], the EC50 (read off the curve) (usually the concentration giving half of the maximal effect) is about 0.8 nM. Also, in experiment [3], the binding result is recorded as “binds”.

B2: hzMB11v13 sdAb (VHH hzMB11v13 fused to human IgG1 xELL Fc) (Fc fusion)
chain: EVQLVESGGGEVQPGGSLRLSCAASGFLFSIYDMNWYRQAPGKEREWVAGITNNGYSTAYAESVKGRFTISRDNAKNTIYLQMSSLRAEDTAVYYCHADLTKAYDVEYAWGQGTLVTVDKTHTCPPCPAPGGPSVFLFPPKPKDTLMISRTPEVTCVVVDVSHEDPEVKFNWYVDGVEVHNAKTKPREEQYNSTYRVVSVLTVLHQDWLNGKEYKCKVSNKALPAPIEKTISKAKGQPREPQVYTLPPSRDELTKNQVSLTCLVKGFYPSDIAVEWESNGQPENNYKTTPPVLDSDGSFFLYSKLTVDKSRWQQGNVFSCSVMHEALHNHYTQKSLSLSPGK
notes: Humanized version of MB11; No linker is stated; also called hzMB11v13-IgG1
As for B2, the Kd in experiment [1] was 0.3 nM. The binding result in experiment [4] is “binds”.
